This note sets out measurements from US20250136695A1.

The target in assay [1] is PDL1 expressed on recombinant CHO cells (CHO-K1/PDL1; aAPC CHO-PDL1) (UniProt Q9NZQ7).
For assay [2], the target named is PDL1 (Fc-cut) antigen (UniProt Q9NZQ7). Kind of assay: ELISA on coated PDL1 (Fc-cut), VHH secondary antibody; PBS blank 0.181 / 0.212.
Assay [3] has the same target. Kind of assay: ELISA on coated PDL1 (Fc-cut), IgG (H+L) secondary antibody; PBS blank 0.121 / 0.102. On the technique in general: An ELISA detects its analyte on a solid surface through an enzyme-linked reagent.

Sequence of PDL1 (Fc-cut) antigen (Q9NZQ7 19-238 limits assumed): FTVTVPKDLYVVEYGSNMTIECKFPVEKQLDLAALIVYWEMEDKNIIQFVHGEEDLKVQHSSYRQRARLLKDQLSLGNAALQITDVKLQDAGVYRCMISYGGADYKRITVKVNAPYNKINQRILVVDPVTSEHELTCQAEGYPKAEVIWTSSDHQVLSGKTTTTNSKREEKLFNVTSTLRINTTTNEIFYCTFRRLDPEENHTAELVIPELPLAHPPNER
Sequence of PDL1 expressed on recombinant CHO cells (CHO-K1/PDL1; aAPC CHO-PDL1) (Q9NZQ7 19-290 limits assumed): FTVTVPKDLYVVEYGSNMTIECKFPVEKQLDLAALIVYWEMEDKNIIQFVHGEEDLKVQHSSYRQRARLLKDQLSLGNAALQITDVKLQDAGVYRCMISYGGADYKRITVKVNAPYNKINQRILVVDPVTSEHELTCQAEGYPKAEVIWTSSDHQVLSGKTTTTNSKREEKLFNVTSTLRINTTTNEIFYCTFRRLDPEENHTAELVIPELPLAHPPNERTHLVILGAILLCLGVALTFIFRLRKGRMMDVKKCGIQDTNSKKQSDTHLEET

On to Atezolizumab (antibody), for which the EC50 of the PD1/PDL1 Block Assay (luciferase fold of induction, Jurkat-PD-1-NFAT-Luc + aAPC CHO-PDL1) in assay [1] was 6.04 µg/mL.
Take Unimmunized serum: in the assay with PDL1 (Fc-cut) antigen [2], the OD450, serum 1:1K, well 1 of 2 came to 0.176; the OD450, serum 1:1K, well 2 of 2 came to 0.166; the OD450, serum 1:2K, well 1 of 2 was 0.194; the OD450, serum 1:2K, well 2 of 2 was determined as 0.213. Besides, in the assay with PDL1 (Fc-cut) antigen [2], the OD450, serum 1:4K, well 1 of 2 was determined as 0.207; the OD450, serum 1:4K, well 2 of 2 came out at 0.236; the OD450, serum 1:8K, well 1 of 2 stood at 0.205; the OD450, serum 1:8K, well 2 of 2 worked out at 0.236. In the assay with PDL1 (Fc-cut) antigen [2], this substance returned an OD450, serum 1:16K, well 1 of 2 of 0.232; an OD450, serum 1:16K, well 2 of 2 of 0.249; an OD450, serum 1:32K, well 1 of 2 of 0.224; an OD450, serum 1:32K, well 2 of 2 of 0.253. In the assay with PDL1 (Fc-cut) antigen [2], this substance registered an OD450, serum 1:64K, well 1 of 2 of 0.201 and an OD450, serum 1:64K, well 2 of 2 of 0.224. Further, in the assay with PDL1 (Fc-cut) antigen [3], the OD450, serum 1:1K, well 1 of 2 stood at 0.189; the OD450, serum 1:1K, well 2 of 2 was found to be 0.176; the OD450, serum 1:2K, well 1 of 2 was found to be 0.145; the OD450, serum 1:2K, well 2 of 2 turned out to be 0.159. In the assay with PDL1 (Fc-cut) antigen [3], this substance yielded an OD450, serum 1:4K, well 1 of 2 of 0.124; an OD450, serum 1:4K, well 2 of 2 of 0.12; an OD450, serum 1:8K, well 1 of 2 of 0.107; an OD450, serum 1:8K, well 2 of 2 of 0.116. Besides, in the assay with PDL1 (Fc-cut) antigen [3], the OD450, serum 1:16K, well 1 of 2 worked out at 0.118; the OD450, serum 1:16K, well 2 of 2 stood at 0.12; the OD450, serum 1:32K, well 1 of 2 was determined as 0.125; the OD450, serum 1:32K, well 2 of 2 stood at 0.118. In the assay with PDL1 (Fc-cut) antigen [3], the OD450, serum 1:64K, well 1 of 2 is 0.141 and the OD450, serum 1:64K, well 2 of 2 was found to be 0.115.
